Reference: paper PMC12204462

Test system: AsCas12a
Assay: BLI
Conditions: not stated in material

Substance | Kd
cDNA with 5' handle | < 37 nM
crRNA (BLI) | 3.7 nM
ΨDNA (cDNA with 3' handle; BLI) | 24.5 nM
